In one assay the target is T1, HMGB1 (UniProt P09429 1-215, limits assumed, biotinylated in the RAGE assay (sites not given)).
T1 construct: also called biotinylated HMGB1
T1 sequence (looked up): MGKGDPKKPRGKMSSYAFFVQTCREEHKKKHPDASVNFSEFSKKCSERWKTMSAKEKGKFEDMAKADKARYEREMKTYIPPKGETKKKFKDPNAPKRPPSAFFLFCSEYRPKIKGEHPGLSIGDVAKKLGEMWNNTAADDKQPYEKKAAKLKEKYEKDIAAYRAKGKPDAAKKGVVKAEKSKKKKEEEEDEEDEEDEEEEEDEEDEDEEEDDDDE
Briefly: Octet BLI. From the text:
We measured association and disassociation rates using the Octet (FIG. 26C).

For assay [1], the target named is T2, TNF-α (UniProt P01375 77-233, biotinylated (sites not given)).
T2 construct: Bought protein; also called biotintylated TNF-α soluble protein
Briefly: Octet BLI, biotinylated TNF-α on streptavidin tips, A6+Fc at 370 nM. As to the method: (§1) The target protein was biotintylated TNF-α soluble protein (R&D Systems) and is at a concentration of 0.25 ug/ml for loading onto the streptavidin sensor tips. […] The Octet was run using the manufacturers protocol for Basic Kinetic Assay.

Assay [2] addresses T2, TNF-α. Briefly: Octet BLI, biotinylated TNF-α on streptavidin tips, A6 at 290 nM. The procedure: as §1
Background: In BLI a coated tip is dipped into the sample, and binding shifts an interference pattern.

Here are results for 3 molecules from patent US20170253645A1 (published 2017).

Where “and” joins values, the source holds several entries; their conditions need not be identical. Identical values can stand only once.

T2 sequence (P01375 77-233 limits assumed): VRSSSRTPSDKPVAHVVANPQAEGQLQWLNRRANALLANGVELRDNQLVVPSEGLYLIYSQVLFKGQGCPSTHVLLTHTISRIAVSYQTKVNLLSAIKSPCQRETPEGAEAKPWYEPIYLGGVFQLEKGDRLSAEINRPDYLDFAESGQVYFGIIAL

B1: P2F3 anti-HMGB1 (designed binder)
chain: NVSPPRRARVTDATETTITIRWGVPHSFQVDAVPANGQTPIQRTIKRGVRSYTITGLQPGTDYKIYLYTLNDNARSSPVVIDAST
notes: soluble 6xHis-tagged protein in Octet; not shown: C-terminal tags from the phagemid incl; 6xHis (soluble form)
One may read the Kd as the equilibrium constant for the complex coming apart. Lower therefore signals tighter binding. For orientation: kon means the rate constant with which the complex forms. The low end stands for slower complex formation, the high end for faster complex formation. For the molecule B1, in the assay with HMGB1, the Kd was determined as 277 nM and the kon turned out to be 97900 M⁻¹ s⁻¹.

B2: R41A6 Fc fusion protein (A6+Fc) (Fc fusion)
chain: NVSPPRRARVTDATETTITISWEHSEDDCYSYIYYFQVDAVPANGQTPIQRTISGYETYYTITGLQPGTDYKIYLYTLNSAGFCPPYSKPVVIDAST
notes: Expressed in E. coli BL-21(DE3) from pET-20b with pelB signal; it calls A6 alone monomeric; also called pET-20b+TNF A6+Fc #39; 14FN3-Fc fusion; not shown: C-terminal hexahistidine tag of pET-20b
The term koff denotes the first-order rate constant of dissociation. High values mean a short-lived complex, low ones a long-lived complex. In the case of B2, in the assay with TNF-α [1], the Kd is 24.8 nM and 14.9 nM and 11.7 nM; the koff is 0.000226 s⁻¹ and 0.00022 s⁻¹ and 0.000229 s⁻¹; the kon is 9120 M⁻¹ s⁻¹ and 14900 M⁻¹ s⁻¹ and 19500 M⁻¹ s⁻¹.

B3: TNF-α binder R41A6 (designed binder)
chain: NVSPPRRARVTDATETTITISWEHSEDDCYSYIYYFQVDAVPANGQTPIQRTISGYETYYTITGLQPGTDYKIYLYTLNSAGFCPPYSKPVVIDAST
notes: 14FN3 scaffold variant from the tyrosine WTM library; Octet); The NcoI primer adds ATGGAA before the NVSPP start in the pET-20b construct; also called TNF A6; not shown: C-terminal hexahistidine tag from pET-20b (Octet), or c-myc + 6xHis tags from the phagemid (soluble ELISA)
Consider B3, for which the koff with TNF-α [2] is 0.000438 s⁻¹ and 0.000267 s⁻¹.
